*1 amine or outer side, *2 acyl side, *3 side chain or, on linkers, in order; H or OH if unused. Where a SMILES comes first, the peptide text is derived from it. Bridges are numbered along the chain shown (N, C = ends). [ ]: non-standard residue; d: D form. The star is where a group is joined. DOTA = O=C(O)CN1CCN(CC(=O)O)CCN(CC(=O)*)CCN(CC(=O)O)CC1; 1Nal = N[C@@H](Cc1cccc2ccccc12)C(=O)O; TBMB = c1c(C[*:1])cc(C[*:3])cc1C[*:2]; Tle = CC(C)(C)[C@H](N)C(=O)O
Assays:
[1] = target: MT1-MMP hemopexin domain (Homo sapiens, UniProt P50281); experiment: Fluorescence polarization direct binding / competition assay to MT1-MMP hemopexin domain
Experimental: Direct Binding Fluorescence Polarization or Anisotropy Assays are performed by titrating a constant concentration of fluorescent tracer (here, the fluoresceinated bicyclic peptide to be studied) with its binding partner (here, the MT1-MMP hemopexin domain). As the concentration of binding partner increases during the titration, the polarization signal changes in proportion to the fraction of bound and unbound material. This allows determination of […] (Kd) quantitatively. Assay data can be fit using standard ligand binding equations.
Typically, concentrations of the tracer are ideally well below the Kd of the tracer: titrant pair, and concentrations chosen are usually at ˜1 nM or less. The titrant (binding partner) concentration is varied from 0.1 nM up to typically 5 μM. The range is chosen such that the maximum change in fluorescent polarization can be observed. Buffers employed are phosphate buffered saline in the presence of 0.01% Tween. Experiments were run in black 384 well low-bind/low volume plates (Corning 3820), and the fluorescent polarization signal was measured using a BMG Pherastar FS plate reader. Fluorescent tracers referred to in the text are bicyclic peptides that have been fluoresceinated using 5,6-carboxyfluorescein. Fluoresceination may be performed on the N-terminal amino group of the peptide, which is separated from the bicycle core sequence by a sarcosine spacer (usually Sar10 (SEQ ID NO: 73)). This can be done during Fmoc solid phase synthesis or post-synthetically (after cyclization with the molecular scaffold reagent and purification) if the N-terminal amino group is unique to the peptide. Fluoresceination can also be performed on the C-terminus, usually on a Lysine introduced as the first C-terminal residue, which is then separated from the bicycle core sequence by a sarcosine spacer (usually Sar6 (SEQ ID NO: 69)). Thus, N-terminal tracers can have a molecular format described as Fluo-Ala-Sar10-A (SEQ ID NO: 72) (BicycleCoreSequence), and (BicycleCoreSequence)-A-Sar6-K (Fluo) (SEQ ID NO: 67) for a C-terminally fluoresceinated construct.
Fluorescent tracers used in the Examples are A-(17-69)-A-Sar6-K (Fluo) (SEQ ID NO: 67), A-(17-69-07)-A-Sar6-K (Fluo) (SEQ ID NO: 67), and A-(17-69-12)-A-Sar6-K (Fluo) (SEQ ID NO: 67). Due to the acidic nature of the 17-69 fluorescent peptides, they were typically prepared as concentrated DMSO stocks, from which dilution were prepared in 100 mM Tris pH 8 buffer.
Due to their high affinities to the MT1-MMP Hemopexin domain (PEX), the fluoresceinated derivatives of 17-69-07 and 17-69-12 (denoted as 17-69-07-N040 and 17-69-12-N005, respectively) can be used for competition experiments (using FP for detection). […] Dissociation of the complex can be measured quantitatively, and the Kd of the competitor (titrant) to the target protein determined. The advantage of the competition method is that the affinities of non-fluoresceinated bicyclic peptides can be determined accurately and rapidly.
Subsequently, the non-fluorescent competitor bicyclic peptide (usually just the bicycle core sequence) is titrated, such that it displaces the fluorescent tracer from the target protein. The displacement of the tracer is measured and associated with a drop in fluorescence polarization. The drop in fluorescence polarization is proportional to the fraction of target protein bound with the non-fluorescent titrant, and thus is a measure of the affinity of titrant to target protein. […]

[2] = Organ distribution of 177Lu-labelled peptides in HT1080 xenograft mice; format: in vivo, BALB/c nu/nu mice; settings: male, BALB/c nu/nu, mouse, HT1080 tumor, iv, total radioactivity; for tissue uptake at 1 h: 1 h p.i.
Experimental: General procedure for radiolabelling with Lu-177.
• 50 μL 0.25 M Na-Acetate buffer pH 5.2+0.1% Tween 20; • 10 μL [Lu-177]LuCl3 in 0.05 M HCl; and • 2 μL of the diluted peptide (2 nmols). […]
Organ distribution studies, general method: For organ distribution, the respective dose is prepared by dilution of the labeling reaction mixture in injection buffer (0.25 M Na-Acetate pH 7+0.05% Tween20). The ^177Lu-radiolabeled peptide was injected via the tail vein of the nu/nu mice (50 kBq per mouse), transplanted with the respective cell line. At indicated time points after injection the animals were sacrificed. Blood, heart, lung, spleen, liver, kidney, muscle, brain, femur, and the tumor were dissected, blotted dry, and weighed. The radioactivity was measured with a γ-counter (CobraII; Canberra Packard) along with a sample of the injection solution to calculate the percentage injected dose per gram of tissue (% ID/g).
The γ- and β-emitter ^177LuCl3 (NEZ307D, Perkin Elmer, in 0.04 M HCl), with a t1/2 of 6.7 days was used for both in vivo biodistribution and internalization studies. Labeling reactions were performed by adding 10 μL ^177LuCl3 (˜10 MBq) in 50 mM HCl, 2 μL of the diluted peptide (1 mM solution in 50 mM HEPES buffer pH 7+0.1% Tween 20 diluted from a 10 mM DMSO stock) to 50 μL 50 mM HEPES buffer pH 7 supplemented with 0.1% Tween 20. The reaction mixture was incubated at 98° C. for 10 minutes. The radiochemical yield (RCY) was determined using high performance liquid chromatography (HPLC) system equipped with a Latek P402 (Latek, Eppelheim, Germany), a HITACHI variable UV detector (absorbance was measured at 214 and 254 nm) and a gamma detector (Bioscan, WA, USA), using a Chromolith RP-18 column (100×4.6 mm; Merck). The analytical HPLC run was performed at 4 mL/min, using a linear A (0.1% trifluoroacetic acid (TFA) in water) to B (0.1% TFA in acetonitrile) gradient (0% B to 100% B in 6 min). Thin-layer chromatography was performed in parallel to confirm the results of the radio-HPLC. The RCY was generally >95%, and thus, the output of labelling reactions was directly diluted with the appropriate buffer and further unlabeled peptide if required, to use in subsequent experiments.
5×10^6 cells of HT1080 were subcutaneously inoculated into the right trunk of male 6-week-old BALB/c nu/nu mice (Charles River Laboratories). The tumors were grown for approximately 1 week, to a maximum size of ˜200 mm^3. Respective doses were prepared by mixing a fixed quantity of 5 pmoles ^177Lu labelled peptides (at approx. 50 kBq) with different quantities of non-labelled peptide (derived from 1 mM stock solution in 0.25 M sodium acetate pH 7+0.05% Tween20) in 100 μL injection buffer (0.25 M sodium acetate pH 7+0.05% Tween20). 3 animals were used per dose and timepoint. Radiolabelled peptide solutions were injected via the tail vein, followed by sacrifice at various time points. Organs of interest (blood, heart, lung, spleen, liver, kidney, muscle, small intestine, brain, HT1080 tumor) were dissected, blotted dry, and weighed. The radioactivity was measured using a gamma counter and calculated as % ID/g.

Compound: C[C@H](NC(=O)CN1CCN(CC(=O)O)CCN(CC(=O)O)CCN(CC(=O)O)CC1)C(=O)N[C@H]1CSCc2cc3cc(c2)CSC[C@H](NC(=O)[C@@H](C)NC(=O)[C@H](Cc2cccc4ccccc24)NC(=O)[C@H](CCC(=O)O)NC(=O)[C@H](CC(N)=O)NC(=O)[C@@H](C)NC1=O)C(=O)N[C@@H](CCC(=O)O)C(=O)N[C@@H](CC(=O)O)C(=O)N[C@@H](Cc1ccccc1)C(=O)N[C@@H](Cc1ccc(O)cc1)C(=O)N[C@@H](CC(=O)O)C(=O)N[C@@H](C(C)(C)C)C(=O)N[C@H](C(N)=O)CSC3 [I-23] ({DOTA}-AC[dA]NE[1Nal][dA]CEDFYD[Tle]C-NH2; linker 2-8-15 via TBMB)
- Kd [1]: 0.52 ± 0.24 nM
- tissue uptake at 1 h ([2]; 50 kBq per mouse): 12 ± 2.37 %ID/g
- tissue uptake at 24 h ([2]; 50 kBq per mouse, 24 h p.i.): 1.54 ± 0.06 %ID/g
- tissue uptake at 1 h [2]: 12.4 %ID/g

— patent US12552837B2, “Bicyclic peptide ligands with detectable moieties and uses thereof” (BicycleRD Limited, priority 2017, dated 2026)
